This note sets out measurements from paper PMC4552549.

The target of the assay is TβRII (TGF-β1 receptor) on PBMC (human (endogenous in PBMC)) (UniProt P37173).
Chain of UniProt P37173 (P37173 23-567): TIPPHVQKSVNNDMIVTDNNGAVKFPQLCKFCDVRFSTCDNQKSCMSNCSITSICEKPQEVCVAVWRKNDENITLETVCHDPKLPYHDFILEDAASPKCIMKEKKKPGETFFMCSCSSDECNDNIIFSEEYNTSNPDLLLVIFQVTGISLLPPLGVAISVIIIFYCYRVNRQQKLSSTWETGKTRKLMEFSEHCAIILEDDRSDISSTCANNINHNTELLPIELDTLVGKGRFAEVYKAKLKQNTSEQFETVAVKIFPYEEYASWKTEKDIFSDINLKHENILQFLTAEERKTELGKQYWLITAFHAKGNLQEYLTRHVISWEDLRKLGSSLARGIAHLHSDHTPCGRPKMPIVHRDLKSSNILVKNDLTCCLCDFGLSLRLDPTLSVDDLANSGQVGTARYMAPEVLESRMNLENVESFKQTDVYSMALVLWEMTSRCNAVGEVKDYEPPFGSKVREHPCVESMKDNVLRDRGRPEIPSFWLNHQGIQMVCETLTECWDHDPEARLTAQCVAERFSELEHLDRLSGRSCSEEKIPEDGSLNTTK

Regarding ACESPLKRQCGGGS [pm26TGF-β1 synthetic peptide], the percentage of Tregs (CD4+CD25+Foxp3+, flow cytometry) in PBMC after the peptide at 1 μM, 10 μM and 100 μM (5.43%, 6.67% and 5.90%; untreated 4.94%) is 6.67%.
